Article PMC10033678, “The RRM-mediated RNA binding activity in T. brucei RAP1 is essential for VSG monoallelic expression”

Tests used:
[1] = target: T1, TbRAP1 639-733 (RRM) (Trypanosoma brucei) (UniProt C1JEX5); assay: fluorescence polarization; conditions: EMSA: 20 mM HEPES pH 7.9, 235 mM KCl, 1 mM MgCl2, 0.1 mM EDTA, 100 ng/ul BSA, 5% glycerol, 1 mM DTT, room temp 30 min; FP: 20 mM sodium phosphate pH 7.0, 50 mM …
T1 sequence: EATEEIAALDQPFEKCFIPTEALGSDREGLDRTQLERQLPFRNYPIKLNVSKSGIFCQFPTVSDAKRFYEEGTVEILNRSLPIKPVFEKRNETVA

[2] = target: TbRAP1 639-733 2FA (Trypanosoma brucei, UniProt C1JEX5 639-733, F655A;F694A); assay: EMSA; EMSA: 20 mM HEPES pH 7.9, 235 mM KCl, 1 mM MgCl2, 0.1 mM EDTA, 100 ng/ul BSA, 5% glycerol, 1 mM DTT, room temp 30 min; FP: 20 mM sodium phosphate pH 7.0, 50 mM; conditions: protein: recombinant, tags: none (TrxA-His6 removed by 3C)
[3] = target: TH6-TbRAP1 639-761 (Trypanosoma brucei, UniProt C1JEX5 639-761); assay: as above; conditions: protein: recombinant; tags: TrxA-His6; label: 32P
[4] = target: TH6-TbRAP1 639-761 5A (Trypanosoma brucei, UniProt C1JEX5 639-761, R737A;K738A;R739A;R740A;R741A); assay: as above; conditions: protein: recombinant, tags: TrxA-His6
[5] = target: T2, TbRAP1 639-761 (RRM+DB) (Trypanosoma brucei, UniProt C1JEX5 639-761); assay: as above; conditions: protein: recombinant, tags: none (TrxA-His6 removed by 3C for EMSA)
[6] = target: TH6-TbRAP1 639-733 (Trypanosoma brucei, UniProt C1JEX5 639-733); assay: as above; conditions: protein: recombinant; tags: TrxA-His6; label: 32P
[7] = target: T3, TbRAP1 639-733 2FL (Trypanosoma brucei, UniProt C1JEX5 639-733, F655L;F694L); assay: as above; conditions: protein: recombinant, tags: none (TrxA-His6 removed by 3C for EMSA)
[8] = target: TbRAP1 639-733 2FQ (Trypanosoma brucei, UniProt C1JEX5 639-733, F655Q;F694Q); assay: as above; conditions: protein: recombinant, tags: none (TrxA-His6 removed by 3C)
[9] = target: T4, TbRAP1 639-733 (RRM) (Trypanosoma brucei, UniProt C1JEX5 639-733); assay: NMR titration; EMSA: 20 mM HEPES pH 7.9, 235 mM KCl, 1 mM MgCl2, 0.1 mM EDTA, 100 ng/ul BSA, 5% glycerol, 1 mM DTT, room temp 30 min; FP: 20 mM sodium phosphate pH 7.0, 50 mM; conditions: protein: recombinant, tags: none (TrxA-His6 removed by 3C for EMSA)
[10] = target: T2, TbRAP1 639-761 (RRM+DB); assay: fluorescence polarization; EMSA: 20 mM HEPES pH 7.9, 235 mM KCl, 1 mM MgCl2, 0.1 mM EDTA, 100 ng/ul BSA, 5% glycerol, 1 mM DTT, room temp 30 min; FP: 20 mM sodium phosphate pH 7.0, 50 mM; conditions: protein: recombinant; tags: none (TrxA-His6 removed by 3C for EMSA); label: 5' 6-FAM
[11] = target: TbRAP1 639-761 5A (Trypanosoma brucei, UniProt C1JEX5 639-761, R737A;K738A;R739A;R740A;R741A); assay: as above; conditions: protein: recombinant; label: 5' 6-FAM
[12] = target: TH6-TbRAP1 639-761 2FA&5A (Trypanosoma brucei, UniProt C1JEX5 639-761, F655A;F694A;R737A;K738A;R739A;R740A;R741A); assay: EMSA; EMSA: 20 mM HEPES pH 7.9, 235 mM KCl, 1 mM MgCl2, 0.1 mM EDTA, 100 ng/ul BSA, 5% glycerol, 1 mM DTT, room temp 30 min; FP: 20 mM sodium phosphate pH 7.0, 50 mM; conditions: protein: recombinant; tags: TrxA-His6
[13] = target: T3, TbRAP1 639-733 2FL; assay: NMR titration; 3x molar excess RNA; EMSA: 20 mM HEPES pH 7.9, 235 mM KCl, 1 mM MgCl2, 0.1 mM EDTA, 100 ng/ul BSA, 5% glycerol, 1 mM DTT, room temp 30 min; FP: 20 mM sodium phosphate pH 7.0, 50 mM; conditions: protein: recombinant; tags: none (TrxA-His6 removed by 3C for EMSA)
[14] = target: T2, TbRAP1 639-761 (RRM+DB); assay: NMR titration; EMSA: 20 mM HEPES pH 7.9, 235 mM KCl, 1 mM MgCl2, 0.1 mM EDTA, 100 ng/ul BSA, 5% glycerol, 1 mM DTT, room temp 30 min; FP: 20 mM sodium phosphate pH 7.0, 50 mM; conditions: protein: recombinant; tags: none (TrxA-His6 removed by 3C for EMSA)
[15] = target: T4, TbRAP1 639-733 (RRM); assay: EMSA; EMSA: 20 mM HEPES pH 7.9, 235 mM KCl, 1 mM MgCl2, 0.1 mM EDTA, 100 ng/ul BSA, 5% glycerol, 1 mM DTT, room temp 30 min; FP: 20 mM sodium phosphate pH 7.0, 50 mM; conditions: protein: recombinant; tags: none (TrxA-His6 removed by 3C for EMSA); label: 32P end label

UGAUAUAUUUUAACAC [6-FAM-16-VSG-UTR]
Kd [1]: 929 µM

B1: 170-no-VSG (ssRNA)
RNA: GGGCGAAUUGGGUACCGGGCCCCCCCUCGAGGUCGACGGUAUCGAUAAGCUUGAUAUCGAAUUCAAUUCCAAAGAAGCCAUGCGCCGUGCAGAGCAGGAAAAAGCCACACGGGAACUCCUCCUGCAACAAACUUCAGCACCACAUGCAUCAUCAGUUACAUCCGGGAUCC
binding result ([2]; label: 32P): no binding
binding result [3]: binds
binding result ([4]; label: 32P): binds
binding result ([5]; label: 32P): binds
binding result [6]: binds
binding result ([7]; label: 32P): no binding
binding result ([8]; label: 32P): no binding

UUAGGGUUAGGG (ssRNA) [(UUAGGG)2]
binding result [9]: no binding

UGAUAUAUUUUAACAC (ssRNA) [6-FAM-16-VSG-UTR]
Kd [10]: ~258 µM
Kd [11]: ~969 µM

B2: 170-VSG-UTR (ssRNA)
RNA: GGGCGAAUUGGGUACCGGGCCCCCCCUCGAGGUCGACGGUAUCGAUAAGCUUGAUAUCGAAUUCAAUUCAUUUCCCCCCUCAAAUUUCCCCCCUCCUUUUAAAAUUUUCCUUGCUACUUGAAAACUUUUUGAUAUAUUUUAACACCAAAACCAGCCGAGAUUUGGGAUCC
binding result [2]: no binding
binding result [4]: binds
Kd [5]: ~0.173 µM
binding result [7]: no binding
binding result [12]: no binding
binding result [8]: no binding

AAAACUUUUUGAUAUAUUUUAACACCAAAACCAG (ssRNA) [34-VSG-UTR]
binding result [13]: no binding
binding result [14]: binds

B3: 80-dsDNA (dsDNA)
DNA 1: CGTGCAGAGCAGGAAAAAGCCACACGGGAACTCCTCCTGCAACAAACTTCAGCACCACATGCATCATCAGTTACATCCGG
DNA 2: CCGGATGTAACTGATGATGCATGTGGTGCTGAAGTTTGTTGCAGGAGGAGTTCCCGTGTGGCTTTTTCCTGCTCTGCACG
binding result ([5]; label: 32P Klenow, blunt): binds

ACAGACCACUACAAGAUACACAGUACAACCAACCA (ssRNA) [35-random]
binding result ([9]; label: 32P end label in EMSA): no binding

UUGCUACUUGAAAACUUUUUGAUAUAUUUUAACAC (ssRNA) [35-VSG-UTR]
binding result ([5]; label: 32P end label): binds
binding result [15]: binds
